Assay results published in patent US8114412B2, “T. cruzi-derived neurotrophic agents and methods of use therefor” (priority 1999, dated 2012).
“Also recorded” adds a separate entry of the source.

How the values were obtained:
[1] = system: primary rat cerebellar granule neurons; assay: Survival of primary cerebellar granule neurons in low K+ medium; assay type: cell-based; details: serum-free BME 5 mM KCl, TS 100 ng/ml, 24 hours, FDA staining
Procedure: Cultures enriched in granule neurons were obtained from the cerebellum of 8-days-old Wistar rats (Charles River, Wilmington, Mass.) as described by D'Mello et al., J. Neurosci 17:1548-1560 (1997). Cells were plated in basal Eagle medium (BME, Gibco BRL, Gaithersburg, Md.), supplemented with 10% FCS, 25 mM KCl and 2 mM glutamine (Gibso BRL) on dishes coated with poly-L-lysine and laminin. Cytosine arabinofumoside (10 μM) was added to the culture medium 18-22 hrs after plating to prevent replication of non-neuronal cells. Replacement of culture medium with serum-free BME medium was performed 7-10 days after plating. Cells were maintained in serum-free BME with 5 mM KCl for 3 hrs and challenged with different stimuli. Neuronal survival was assayed after 24 hours by staining with 10 μg/ml fluorescein diacetate (FDA, Sigma) (Jones and Senft, 1985) and with DAPI (see above). Chicken dorsal root ganglia neurons were prepared as described (Cox and Dunlap, J. Gen. Physiol 104:311-336 (1994)).

DS-1 B-lymphoma cells = assay: Bioassay for IL-6 with IL-6 dependent DS-1 cells; assay type: cell-based, human; details: conditioned media of PBMC or T-24 cells (TS 1 μg/ml, 24 hr) diluted into IL-6 free media; or TS 1 μg/ml directly
Procedure: Bioassay for IL-6 was performed using IL-6 dependent human DS-1 cells (Bock et al., Cytokine 5: 480-489 (1993), ATCC Accession No. CRL-11102). Briefly, 1×10^4 cells/well were plated in 96-well plates and incubated for 24 hrs in IL-6-free medium (10% FCS in RPMI) containing several dilutions of TS-conditioned media or exogenous rIL-6. The cultures were pulsed with 0.5 μCi ^3H-thymidine for 4 hrs and harvested to determine radioactivity incorporation using a microplate scintillation instrument (Packard). In some studies, a neutralizing anti-IL-6 rabbit IgG or normal rabbit IgG (Endogen) was added to the dilutions of TS-conditioned prior to assaying for growth-stimulation of DS-1 cells. TS conditioned media was prepared by incubating PBMC or T-24 cells for 24 hr in 10% FCS/RPMI without (CM) or with (TS/CM) TS at 1 μg/ml. Supernatants were centrifuged at 1,000×g to remove cell debris and were kept frozen at −20° C. until use.

IL-6 mRNA in PBMC = assay: RT-PCR of IL-6 mRNA in PBMC; assay type: cell-based, human
Procedure: Semiquantitative analysis of cytokine mRNA was performed by the primer-dropping method (Wong et al., Anal. Biochem. 223:251-258, […])). […] Two μg of total RNA were converted to cDNA in a volume of 20 μl using random hexamer primers according to the manufacturer's instructions (GIBCO-BRL). Synthetic DNA primers for human IL-6 were 5′[…] (SEQ ID NO:24) and 5′[…] (SEQ ID NO:25), and for GAPDH were those described in Example 1 (SEQ ID NO: 10 and SEQ ID NO:11). The PCR mixture contained 20 mM Tris-HCl pH 8.4, 50 mM KCl, 1.5 mM MgCl2, 1 mM dNTP, 200 pM primers and 1 U of Taq polymerase in 50 μl. Thermal cycling conditions were: denaturation step 95 degrees for 5 min; 35 cycles of 95 degrees 30 sec, 60 degrees 30 sec and 75 degrees 1 min, and a final step of 75 degrees for 5 min. At cycle number 9, GAPDH primers were added. Five microliters of the PCR product were alalyzed by electrophoresis through 2% agarose-gel in the presence of 1 μg/ml ethidium bromide.

[2] = system: Akt kinase in human Schwann cells; assay: Kinase assay of Akt in vitro (GSK-3α substrate) from Schwann cell lysates; assay type: cell-based; details: CD 500 ng/ml, 2 minutes
Trans-sialidase assay = assay type: biochemical
Procedure: The trans-sialidase assay was performed as described (Scudder et al., J. Biol. Chem. 268:9886-9891 (1993)) with slight modifications. Various amounts of intact enzyme or enzyme fragments were added to 50 mM PBS, Ph 7.2, containing 15% fetal calf serum and […] of [^14C]N-acetyllactosamine (4×10^5 dpm), 50 μg BSA and 0.02% NaN3 in a volume of 60 μl. After incubation for a predetermined amount of time at room temperature, the reaction mixture was diluted to 1.0 ml with distilled water and applied to a column containing 1.0 ml Q-Sepharose equilibrated with water. Sialylated product was eluted with 1 M NaCi and quantified by scintillation counting.
TS enzymatic activity was measured by the sialylation of the acceptor ^14C-labeled N-acetyllactosamine on anion exchange resins (Scudder, P. et. al., J. Biol. Chem. 268:9886-9891 (1993)). Recombinant TSA-1, was expressed on insect sf9 cells and purified from serum-free medium by ion exchange chromatography (monoQ) and preparative SDS-PAGE (Wrightsman, R. A. et al., J. Immunol., 153:3148-3154 (1994).

B1: TS: T. cruzi trans-sialidase purified by immuno-affinity chromatography from supernatants of infected Vero cells (SEQ ID NO:2, SEQ ID NO:34) (protein, listed as Trypanosoma cruzi)
chain: MVAIADARYETSSENSLIDTVAKYSVDDGETWETQIAIKNSRVSSVSRVVDPTVIVKGNKLYVLVGSYYSSRSYWSSHGDARDWDILLAVGEVTKSTAGGKITASIKWGSPVSLKKFFPAEMEGMHTNQFLGGAGVAIVASNGNLVYPVQVTNKRKQVFSKIFYSEDDGKTWKFGKGRSDFGCSEPVALEWEGKLIINTRVDWKRRLVYESSDMEKPWVEAVGTVSRVWGPSPKSNQPGSQTSFTAVTIEGMRVMLFTHPLNFKGRCVRDRLNLWLTDNQRIYNVGQVSIGDENSAYSSVLYKDDKLYCLHEINTDEVYSLVFARLVGELRIIKSVLRSWKNWTATCPAFAPLLIQPLRRQRVVVVPLSPRLVLLAFCRQRLPKRMGGSYRCVNASTANAERVRNGLKFAGVGGGALWPVSQQGQNQRYRFANHAFTLVASVTIHEAPRAASPLLGASLDSSGGKKLLGLSYDEKHQWQPIYGSTPVTPTGSWETGKRYHLVLTMANKIGSVYIDGELLEGSGQTVVPDGRTPDISHFYVGGYKRSDMPTISHVTVNNVLLYNRRQLNTEEIRTLFLSQDLIGTEAHMDSSSDSSAHSTPSTPADSSAHSTPSTPVDSSAHSTPSTPADSSAHGTPSTPVDSSAHGTPSTPADSSAHGTPSTPVDSSAHSTPSTPVDSSAHSTPSTPVDSSAHGAPSTPADSSAHGTPSTPVDSSAHGTPSTPADSSAHSTPSTPADSSAHSTPSTPADSSAHSTPSTPVDSSAHGTPSTPADSSAHSTPSTPADSSAHGTPSTPVDSSAHSTPSTPVDSSAHGTPSTPVDSSAHSTPSTPVDSSAHGTPSTPVDSSAHSTPSTPADSSAHSTPSTPADSSAHGTPSTPVDSSAHSTPSTPADSSAHSTPSTPVDSSAHSTPSTPADSSAHGTPSTPVDSSAHGTPSTPADSSAHSTPSTPADSSAHSTPSTPADSSAHSTPSTPVDSSAHSTPSTPADSSAHSTPSTPADSSAHSTPSTPADSSAHSTPSTPVDSSAHSTPSTPADSSAHGTPSTPADSSAHSTPSTPVDSSAHSTPSTPADSSAHGTPSTPADSSAHSTPSTPADSSAHGTPSTPADSSAHSTPSTPAGSSANGTVLILPDGAALSTFSGGGLLLCACALLLHVFFMAVF
[1]
  protection of primary cerebellar granule neurons from death in low K+ medium: effectively protected the neurons from death; also recorded: increased number of viable cells
DS-1 B-lymphoma cells
  proliferation/growth of IL-6-dependent DS-1 cells: did not restore growth of the DS-1 cells; also recorded: did not induce proliferation
IL-6 mRNA in PBMC; TS 1 μg/ml, 4, 10 or 24 hours
  expression of IL-6 mRNA in PBMC: induces expression of IL-6 mRNA
IL-6 mRNA in PBMC; after TS stimulation
  time of maximal upregulation of IL-6 transcripts: 4 to 10 h

B2: TS-F: recombinant full catalytic domain of TS, amino acid residues 33-666, His-tagged, expressed in E. coli (protein, listed as Trypanosoma cruzi)
chain: ETQIAIKNSRVSSVSRVVDPTVIVKGNKLYVLVGSYYSSRSYWSSHGDARDWDILLAVGEVTKSTAGGKITASIKWGSPVSLKKFFPAEMEGMHTNQFLGGAGVAIVASNGNLVYPVQVTNKRKQVFSKIFYSEDDGKTWKFGKGRSDFGCSEPVALEWEGKLIINTRVDWKRRLVYESSDMEKPWVEAVGTVSRVWGPSPKSNQPGSQTSFTAVTIEGMRVMLFTHPLNFKGRCVRDRLNLWLTDNQRIYNVGQVSIGDENSAYSSVLYKDDKLYCLHEINTDEVYSLVFARLVGELRIIKSVLRSWKNWTATCPAFAPLLIQPLRRQRVVVVPLSPRLVLLAFCRQRLPKRMGGSYRCVNASTANAERVRNGLKFAGVGGGALWPVSQQGQNQRYRFANHAFTLVASVTIHEAPRAASPLLGASLDSSGGKKLLGLSYDEKHQWQPIYGSTPVTPTGSWETGKRYHLVLTMANKIGSVYIDGELLEGSGQTVVPDGRTPDISHFYVGGYKRSDMPTISHVTVNNVLLYNRRQLNTEEIRTLFLSQDLIGTEAHMDSSSDSSAHSTPSTPADSSAHSTPSTPVDSSAHSTPSTPADSSAHGTPSTPVDSSAHGTPSTPADSSAHGTPSTPVDS
modifications: His tag
notes: recombinant full catalytic domain of TS, amino acid residues 33-666, His-tagged, expressed in E. coli
[2]
  Akt kinase activity in control GFP-transfected Schwann cells: stimulation of Akt activity
[2]; listed as CD
  Akt kinase activity in Schwann cells over expressing AktKI: inability of CD to enhance endogenous Akt enzymatic activity; also recorded: did not activate Akt kinase
Trans-sialidase assay
  trans-sialidase enzymatic activity: enzymatically active
